Laboratory results as given in publication doi:10.1101/748145 (bioRxiv, 2019).

Target: the molecule itself
Experiment: negative stain EM

Row | Protein | stoichiometry N
1 | LetB three-ring truncation mutant (rings 2-5 deleted), TM helix removed (domain or fragment) QDRGNTVTIDFMSADGIVPGRTPVRYQGVEVGTVQDISLSDDLRKIEVKVSIKSDMKDALREETQFWLVTPKASLAGVSGLDALVGGNYIGMMPGKGKEQDHFVALDTQPKYRLDNGSETAARAVGGQITLHAFDAGKLAVGMPIRYLGIDIGQIQTLDLITARNEVQAKAVLYPEYVQTFARGGTRFSVVTPQISAAGVEHLDTILQPYINVEPGRGNPRRDFELQEATITDSRYLDGLSIIVEAPEAGSLGIGTPVLFRGLEVGTVTGMTLGTLSDRVMIAMRISKRYQHLVRNNSVFWLASGYSLDFGLTGGVVKTGTFNQFIRGGIAFATPPGTPLAPKAQEGKHFLLQESEPKEWREWGTALPK | 6
2 | LetB L243N (periplasmic domain) (domain or fragment, E. coli, UniProt P76272 43-877, looked up) QDRGNTVTIDFMSADGIVPGRTPVRYQGVEVGTVQDISLSDDLRKIEVKVSIKSDMKDALREETQFWLVTPKASLAGVSGLDALVGGNYIGMMPGKGKEQDHFVALDTQPKYRLDNGDLMIHLQAPDLGSLNSGSLVYFRKIPVGKVYDYAINPNKQGVVIDVLIERRFTDLVKKGSRFWNVSGVDANVSISGAKVKLESNAALVNGAIAFDSPEESKPAEAEDTFGLYEDLAHSQRGVIIKLELPSGAGLTADSTPLMYQGLEVGQLTKLDLNPGGKVTGEMTVDPSVVTLLRENTRIELRNPKLSLSDANLSALLTGKTFELVPGDGEPRKEFVVVPGEKALLHEPDVLTLTLTAPESYGIDAGQPLILHGVQVGQVIDRKLTSKGVTFTVAIEPQHRELVKGDSKFVVNSRVDVKVGLDGVEFLGASASEWINGGIRILPGDKGEMKASYPLYANLEKALENSLSDLPTTTVSLSAETLPDVQAGSVVLYRKFEVGEVITVRPRANAFDIDLHIKPEYRNLLTSNSVFWAEGGAKVQLNGSGLTVQASPLSRALKGAISFDNLSGASASQRKGDKRILYASETAARAVGGQITLHAFDAGKLAVGMPIRYLGIDIGQIQTLDLITARNEVQAKAVLYPEYVQTFARGGTRFSVVTPQISAAGVEHLDTILQPYINVEPGRGNPRRDFELQEATITDSRYLDGLSIIVEAPEAGSLGIGTPVLFRGLEVGTVTGMTLGTLSDRVMIAMRISKRYQHLVRNNSVFWLASGYSLDFGLTGGVVKTGTFNQFIRGGIAFATPPGTPLAPKAQEGKHFLLQESEPKEWREWGTALPK | 6
3 | LetB L358N (periplasmic domain) (domain or fragment, E. coli, UniProt P76272 43-877, looked up) QDRGNTVTIDFMSADGIVPGRTPVRYQGVEVGTVQDISLSDDLRKIEVKVSIKSDMKDALREETQFWLVTPKASLAGVSGLDALVGGNYIGMMPGKGKEQDHFVALDTQPKYRLDNGDLMIHLQAPDLGSLNSGSLVYFRKIPVGKVYDYAINPNKQGVVIDVLIERRFTDLVKKGSRFWNVSGVDANVSISGAKVKLESLAALVNGAIAFDSPEESKPAEAEDTFGLYEDLAHSQRGVIIKLELPSGAGLTADSTPLMYQGLEVGQLTKLDLNPGGKVTGEMTVDPSVVTLLRENTRIELRNPKLSLSDANLSANLTGKTFELVPGDGEPRKEFVVVPGEKALLHEPDVLTLTLTAPESYGIDAGQPLILHGVQVGQVIDRKLTSKGVTFTVAIEPQHRELVKGDSKFVVNSRVDVKVGLDGVEFLGASASEWINGGIRILPGDKGEMKASYPLYANLEKALENSLSDLPTTTVSLSAETLPDVQAGSVVLYRKFEVGEVITVRPRANAFDIDLHIKPEYRNLLTSNSVFWAEGGAKVQLNGSGLTVQASPLSRALKGAISFDNLSGASASQRKGDKRILYASETAARAVGGQITLHAFDAGKLAVGMPIRYLGIDIGQIQTLDLITARNEVQAKAVLYPEYVQTFARGGTRFSVVTPQISAAGVEHLDTILQPYINVEPGRGNPRRDFELQEATITDSRYLDGLSIIVEAPEAGSLGIGTPVLFRGLEVGTVTGMTLGTLSDRVMIAMRISKRYQHLVRNNSVFWLASGYSLDFGLTGGVVKTGTFNQFIRGGIAFATPPGTPLAPKAQEGKHFLLQESEPKEWREWGTALPK | 6
4 | LetB L359N (periplasmic domain) (domain or fragment, E. coli, UniProt P76272 43-877, looked up) QDRGNTVTIDFMSADGIVPGRTPVRYQGVEVGTVQDISLSDDLRKIEVKVSIKSDMKDALREETQFWLVTPKASLAGVSGLDALVGGNYIGMMPGKGKEQDHFVALDTQPKYRLDNGDLMIHLQAPDLGSLNSGSLVYFRKIPVGKVYDYAINPNKQGVVIDVLIERRFTDLVKKGSRFWNVSGVDANVSISGAKVKLESLAALVNGAIAFDSPEESKPAEAEDTFGLYEDLAHSQRGVIIKLELPSGAGLTADSTPLMYQGLEVGQLTKLDLNPGGKVTGEMTVDPSVVTLLRENTRIELRNPKLSLSDANLSALNTGKTFELVPGDGEPRKEFVVVPGEKALLHEPDVLTLTLTAPESYGIDAGQPLILHGVQVGQVIDRKLTSKGVTFTVAIEPQHRELVKGDSKFVVNSRVDVKVGLDGVEFLGASASEWINGGIRILPGDKGEMKASYPLYANLEKALENSLSDLPTTTVSLSAETLPDVQAGSVVLYRKFEVGEVITVRPRANAFDIDLHIKPEYRNLLTSNSVFWAEGGAKVQLNGSGLTVQASPLSRALKGAISFDNLSGASASQRKGDKRILYASETAARAVGGQITLHAFDAGKLAVGMPIRYLGIDIGQIQTLDLITARNEVQAKAVLYPEYVQTFARGGTRFSVVTPQISAAGVEHLDTILQPYINVEPGRGNPRRDFELQEATITDSRYLDGLSIIVEAPEAGSLGIGTPVLFRGLEVGTVTGMTLGTLSDRVMIAMRISKRYQHLVRNNSVFWLASGYSLDFGLTGGVVKTGTFNQFIRGGIAFATPPGTPLAPKAQEGKHFLLQESEPKEWREWGTALPK | 6
5 | LetB L355N (periplasmic domain) (domain or fragment, E. coli, UniProt P76272 43-877, looked up) QDRGNTVTIDFMSADGIVPGRTPVRYQGVEVGTVQDISLSDDLRKIEVKVSIKSDMKDALREETQFWLVTPKASLAGVSGLDALVGGNYIGMMPGKGKEQDHFVALDTQPKYRLDNGDLMIHLQAPDLGSLNSGSLVYFRKIPVGKVYDYAINPNKQGVVIDVLIERRFTDLVKKGSRFWNVSGVDANVSISGAKVKLESLAALVNGAIAFDSPEESKPAEAEDTFGLYEDLAHSQRGVIIKLELPSGAGLTADSTPLMYQGLEVGQLTKLDLNPGGKVTGEMTVDPSVVTLLRENTRIELRNPKLSLSDANNSALLTGKTFELVPGDGEPRKEFVVVPGEKALLHEPDVLTLTLTAPESYGIDAGQPLILHGVQVGQVIDRKLTSKGVTFTVAIEPQHRELVKGDSKFVVNSRVDVKVGLDGVEFLGASASEWINGGIRILPGDKGEMKASYPLYANLEKALENSLSDLPTTTVSLSAETLPDVQAGSVVLYRKFEVGEVITVRPRANAFDIDLHIKPEYRNLLTSNSVFWAEGGAKVQLNGSGLTVQASPLSRALKGAISFDNLSGASASQRKGDKRILYASETAARAVGGQITLHAFDAGKLAVGMPIRYLGIDIGQIQTLDLITARNEVQAKAVLYPEYVQTFARGGTRFSVVTPQISAAGVEHLDTILQPYINVEPGRGNPRRDFELQEATITDSRYLDGLSIIVEAPEAGSLGIGTPVLFRGLEVGTVTGMTLGTLSDRVMIAMRISKRYQHLVRNNSVFWLASGYSLDFGLTGGVVKTGTFNQFIRGGIAFATPPGTPLAPKAQEGKHFLLQESEPKEWREWGTALPK | 6
6 | LetB V247N (periplasmic domain) (domain or fragment, E. coli, UniProt P76272 43-877, looked up) QDRGNTVTIDFMSADGIVPGRTPVRYQGVEVGTVQDISLSDDLRKIEVKVSIKSDMKDALREETQFWLVTPKASLAGVSGLDALVGGNYIGMMPGKGKEQDHFVALDTQPKYRLDNGDLMIHLQAPDLGSLNSGSLVYFRKIPVGKVYDYAINPNKQGVVIDVLIERRFTDLVKKGSRFWNVSGVDANVSISGAKVKLESLAALNNGAIAFDSPEESKPAEAEDTFGLYEDLAHSQRGVIIKLELPSGAGLTADSTPLMYQGLEVGQLTKLDLNPGGKVTGEMTVDPSVVTLLRENTRIELRNPKLSLSDANLSALLTGKTFELVPGDGEPRKEFVVVPGEKALLHEPDVLTLTLTAPESYGIDAGQPLILHGVQVGQVIDRKLTSKGVTFTVAIEPQHRELVKGDSKFVVNSRVDVKVGLDGVEFLGASASEWINGGIRILPGDKGEMKASYPLYANLEKALENSLSDLPTTTVSLSAETLPDVQAGSVVLYRKFEVGEVITVRPRANAFDIDLHIKPEYRNLLTSNSVFWAEGGAKVQLNGSGLTVQASPLSRALKGAISFDNLSGASASQRKGDKRILYASETAARAVGGQITLHAFDAGKLAVGMPIRYLGIDIGQIQTLDLITARNEVQAKAVLYPEYVQTFARGGTRFSVVTPQISAAGVEHLDTILQPYINVEPGRGNPRRDFELQEATITDSRYLDGLSIIVEAPEAGSLGIGTPVLFRGLEVGTVTGMTLGTLSDRVMIAMRISKRYQHLVRNNSVFWLASGYSLDFGLTGGVVKTGTFNQFIRGGIAFATPPGTPLAPKAQEGKHFLLQESEPKEWREWGTALPK | 6
7 | LetB L246N (periplasmic domain) (domain or fragment, E. coli, UniProt P76272 43-877, looked up) QDRGNTVTIDFMSADGIVPGRTPVRYQGVEVGTVQDISLSDDLRKIEVKVSIKSDMKDALREETQFWLVTPKASLAGVSGLDALVGGNYIGMMPGKGKEQDHFVALDTQPKYRLDNGDLMIHLQAPDLGSLNSGSLVYFRKIPVGKVYDYAINPNKQGVVIDVLIERRFTDLVKKGSRFWNVSGVDANVSISGAKVKLESLAANVNGAIAFDSPEESKPAEAEDTFGLYEDLAHSQRGVIIKLELPSGAGLTADSTPLMYQGLEVGQLTKLDLNPGGKVTGEMTVDPSVVTLLRENTRIELRNPKLSLSDANLSALLTGKTFELVPGDGEPRKEFVVVPGEKALLHEPDVLTLTLTAPESYGIDAGQPLILHGVQVGQVIDRKLTSKGVTFTVAIEPQHRELVKGDSKFVVNSRVDVKVGLDGVEFLGASASEWINGGIRILPGDKGEMKASYPLYANLEKALENSLSDLPTTTVSLSAETLPDVQAGSVVLYRKFEVGEVITVRPRANAFDIDLHIKPEYRNLLTSNSVFWAEGGAKVQLNGSGLTVQASPLSRALKGAISFDNLSGASASQRKGDKRILYASETAARAVGGQITLHAFDAGKLAVGMPIRYLGIDIGQIQTLDLITARNEVQAKAVLYPEYVQTFARGGTRFSVVTPQISAAGVEHLDTILQPYINVEPGRGNPRRDFELQEATITDSRYLDGLSIIVEAPEAGSLGIGTPVLFRGLEVGTVTGMTLGTLSDRVMIAMRISKRYQHLVRNNSVFWLASGYSLDFGLTGGVVKTGTFNQFIRGGIAFATPPGTPLAPKAQEGKHFLLQESEPKEWREWGTALPK | 6
8 | LetB two-ring truncation mutant (rings 2-6 deleted), TM helix removed (domain or fragment) QDRGNTVTIDFMSADGIVPGRTPVRYQGVEVGTVQDISLSDDLRKIEVKVSIKSDMKDALREETQFWLVTPKASLAGVSGLDALVGGNYIGMMPGKGKEQDHFVALDTQPKYRLDNGDGLSIIVEAPEAGSLGIGTPVLFRGLEVGTVTGMTLGTLSDRVMIAMRISKRYQHLVRNNSVFWLASGYSLDFGLTGGVVKTGTFNQFIRGGIAFATPPGTPLAPKAQEGKHFLLQESEPKEWREWGTALPK | 6
